Data taken from the supplement of paper PMC11246515.
± gives the standard deviation of the averaged measurements.

Experiment: total protein half-life in vivo (active degradation + dilution); higher = more stable protein
[1] = E. coli NCM3722 delta-clpP delta-lon delta-hslV, growth: N-lim chemostat, doubling time 6 h
[2] = E. coli NCM3722 delta-hslV, growth: N-lim chemostat, doubling time 6 h
[3] = E. coli NCM3722 delta-smpB, growth: N-lim chemostat, doubling time 6 h
[4] = wild type E. coli NCM3722, growth: C-lim chemostat, doubling time 3 h
[5] = wild type E. coli NCM3722, growth: C-lim chemostat, doubling time 6 h
[6] = wild type E. coli NCM3722, growth: C-lim chemostat, doubling time 12 h
[7] = wild type E. coli NCM3722, growth: N-lim chemostat, doubling time 6 h
[8] = wild type E. coli NCM3722, growth: P-lim chemostat, doubling time 6 h
[9] = wild type E. coli NCM3722, growth: P-lim chemostat, doubling time 12 h
[10] = E. coli NCM3722 delta-clpP, growth: N-lim chemostat, doubling time 6 h
[11] = E. coli NCM3722 delta-lon, growth: N-lim chemostat, doubling time 6 h
[12] = wild type E. coli NCM3722, growth: N-lim chemostat, doubling time 12 h

Row | Sequence | total protein half-life in vivo [1] | total protein half-life in vivo [2] | total protein half-life in vivo [3] | total protein half-life in vivo [4] | total protein half-life in vivo [5] | total protein half-life in vivo [6] | total protein half-life in vivo [7] | total protein half-life in vivo [8] | total protein half-life in vivo [9] | total protein half-life in vivo [10] | total protein half-life in vivo [11] | total protein half-life in vivo [12]
1 | MSKKIVLALGGNALGDDLAGQMKAVKITSQAIVDLIAQGHEVIVTHGNGPQVGMINQAFEAAAKTEAHSPMLPMSVCVALSQGYIGYDLQNALREELLSRGINKPVATLVTQVEVDANDPAFLNPTKPIGSFFTEQEAEQLTKQGYTLKEDAGRGYRRVVASPKPVDIIEKETVKALVDAGQVVITVGGGGIPVIREGNHLRGASAVIDKDWASARLAEMIDADMLIILTAVEKVAINFGKENEQWLDRLSLSDAERFIEEGHFAKGSMLPKVEAAASFARSRAGREALITVLSKAKEGIEGKTGTVICQ | 3.53 h | > 8 h | 2.48 h | 2.84 ± 0.39 h | 3.92 h | 6.22 ± 1.5 h | 2.66 h | 3.03 h | 5.27 ± 1.5 h |  |  | 
2 | MTHDNIDILVVDDDISHCTILQALLRGWGYNVALANSGRQALEQVREQVFDLVLCDVRMAEMDGIATLKEIKALNPAIPVLIMTAYSSVETAVEALKTGALDYLIKPLDFDNLQATLEKALAHTHSIDAETPAVTASQFGMVGKSPAMQHLLSEIALVAPSEATVLIHGDSGTGKELVARAIHASSARSEKPLVTLNCAALNESLLESELFGHEKGAFTGADKRREGRFVEADGGTLFLDEIGDISPMMQVRLLRAIQEREVQRVGSNQIISVDVRLIAATHRDLAAEVNAGRFRQDLYYRLNVVAIEVPSLRQRREDIPLLAGHFLQRFAERNRKAVKGFTPQAMDLLIHYDWPGNIRELENAVERAVVLLTGEYISERELPLAIASTPIPLGQSQDIQPLVEVEKEVILAALEKTGGNKTEAARQLGITRKTLLAKLSR | 5.51 ± 2.1 h | 2.98 ± 0.35 h | 2.79 ± 0.13 h | 2.64 ± 0.3 h | 3.94 ± 1.3 h | 6.74 ± 1.1 h | 2.89 h | 3.93 ± 0.27 h | 7.36 ± 0.67 h | 3.79 ± 0.11 h | 4.45 ± 1.4 h | 4.34 ± 0.63 h
3 | MLRECDYSQALLEQVNQAISDKTPLVIQGSNSKAFLGRPVTGQTLDVRCHRGIVNYDPTELVITARVGTPLVTIEAALESAGQMLPCEPPHYGEEATWGGMVACGLAGPRRPWSGSVRDFVLGTRIITGAGKHLRFGGEVMKNVAGYDLSRLMVGSYGCLGVLTEISMKVLPRPRASLSLRREISLQEAMSEIAEWQLQPLPISGLCYFDNALWIRLEGGEGSVKAARELLGGEEVAGQFWQQLREQQLPFFSLPGTLWRISLPSDAPMMDLPGEQLIDWGGALRWLKSTAEDNQIHRIARNAGGHATRFSAGDGGFAPLSAPLFRYHQQLKQQLDPCGVFNPGRMYAEL | 4.1 ± 1.8 h |  |  | 1.22 ± 0.36 h | 2.52 ± 0.13 h | 3.59 ± 0.039 h |  |  | 3.88 ± 1.7 h |  |  | 
4 | MKNIRYIDKKDVENLIENKISDDVIIFLSGPTSQKTPLSVLRTKDIIAVNGSAQYLLSNNIVPFIYVLTDVRFLHQRRDDFYKFSQRSRYTIVNVDVYEHASKEDKLYILQNCLVLRSFYRREKGGFIKKIKFNILRQIHKELLISVPLSKKGRLVGFCKDISLGYCSCHTIAFAAIQIAYSLKYARIICSGLDLTGSCSRFYDENKNPMPSELSRDLFKILPFFRFMHDNVKDINIYNLSDDTAISYDVIPFIKLQDISAEESKDMTRKKMQYRTSTDSYAN | 5.01 ± 0.085 h |  | 3.714 ± 0.0057 h | 1.67 ± 0.44 h | 1.52 ± 0.34 h | 1.73 ± 0.45 h | 3.52 h | 1.84 ± 0.14 h | 4.15 ± 0.71 h | 4.65 ± 0.19 h | 3.32 ± 0.14 h | 6.11 ± 0.77 h
5 | MIKKASLLTACSVTAFSAWAQDTSPDTLVVTANRFEQPRSTVLAPTTVVTRQDIDRWQSTSVNDVLRRLPGVDITQNGGSGQLSSIFIRGTNASHVLVLIDGVRLNLAGVSGSADLSQFPIALVQRVEYIRGPRSAVYGSDAIGGVVNIITTRDEPGTEISAGWGSNSYQNYDVSTQQQLGDKTRVTLLGDYAHTHGYDVVAYGNTGTQAQTDNDGFLSKTLYGALEHNFTDAWSGFVRGYGYDNRTNYDAYYSPGSPLLDTRKLYSQSWDAGLRYNGELIKSQLITSYSHSKDYNYDPHYGRYDSSATLDEMKQYTVQWANNVIVGHGSIGAGVDWQKQTTTPGTGYVEDGYDQRNTGIYLTGLQQVGDFTFEGAARSDDNSQFGRHGTWQTSAGWEFIEGYRFIASYGTSYKAPNLGQLYGFYGNPNLDPEKSKQWEGAFEGLTAGVNWRISGYRNDVSDLIDYDDHTLKYYNEGKARIKGVEATANFDTGPLTHTVSYDYVDARNAITDTPLLRRAKQQVKYQLDWQLYDFDWGITYQYLGTRYDKDYSSYPYQTVKMGGVSLWDLAVAYPVTSHLTVRGKIANLFDKDYETVYGYQTAGREYTLSGSYTF | 6.44 ± 0.73 h | 6.84 ± 0.059 h | 6.07 ± 0.27 h | 3.26 ± 0.15 h | 6.12 ± 0.2 h | 12.3 ± 0.2 h | 6.29 ± 0.28 h | 6.23 ± 0.18 h | 12.8 ± 0.14 h | 6.76 ± 0.089 h | 6.49 ± 0.47 h | 13.5 ± 1.7 h
6 | MANNTTGFTRIIKAAGYSWKGLRAAWINEAAFRQEGVAVLLAVVIACWLDVDAITRVLLISSVMLVMIVEILNSAIEAVVDRIGSEYHELSGRAKDMGSAAVLIAIIVAVITWCILLWSHFG [P0ABN1] | 6.58 ± 0.097 h | 5.79 ± 0.99 h | 6.13 ± 0.91 h | 3.24 ± 0.045 h | 6.21 ± 0.12 h | 13.3 ± 2.6 h | 5.93 ± 0.34 h | 5.54 ± 0.21 h | 11.3 ± 0.31 h | 6.7 ± 1.4 h | 6.03 ± 0.49 h | 13.7 ± 3.1 h
7 | MAGLKLQAVTKSWDGKTQVIKPLTLDVADGEFIVMVGPSGCGKSTLLRMVAGLERVTEGDIWINDQRVTEMEPKDRGIAMVFQNYALYPHMSVEENMAWGLKIRGMGKQQIAERVKEAARILELDGLLKRRPRELSGGQRQRVAMGRAIVRDPAVFLFDEPLSNLDAKLRVQMRLELQQLHRRLKTTSLYVTHDQVEAMTLAQRVMVMNGGVAEQIGTPVEVYEKPASLFVASFIGSPAMNLLTGRVNNEGTHFELDGGIELPLNGGYRQYAGRKMTLGIRPEHIALSSQAEGGVPMVMDTLEILGADNLAHGRWGEQKLVVRLAHQERPTAGSTLWLHLAENQLHLFDGETGQRV | 6.33 ± 0.31 h | 5.83 ± 0.11 h | 5.45 ± 0.75 h | 3.13 ± 0.15 h | 5.54 ± 0.4 h | 12 ± 0.92 h | 5.14 ± 0.41 h | 6.25 ± 0.35 h | 13.2 ± 0.23 h | 6 ± 0.91 h | 4.99 ± 0.61 h | 
